The values that follow come from patent publication US20230265179A1 (TWIST BIOSCIENCE, published 2023).

The target of one assay is T1, IL1RL1 (UniProt Q01638 19-328, limits assumed).
T1 construct: SPR analyte
T1 sequence (looked up): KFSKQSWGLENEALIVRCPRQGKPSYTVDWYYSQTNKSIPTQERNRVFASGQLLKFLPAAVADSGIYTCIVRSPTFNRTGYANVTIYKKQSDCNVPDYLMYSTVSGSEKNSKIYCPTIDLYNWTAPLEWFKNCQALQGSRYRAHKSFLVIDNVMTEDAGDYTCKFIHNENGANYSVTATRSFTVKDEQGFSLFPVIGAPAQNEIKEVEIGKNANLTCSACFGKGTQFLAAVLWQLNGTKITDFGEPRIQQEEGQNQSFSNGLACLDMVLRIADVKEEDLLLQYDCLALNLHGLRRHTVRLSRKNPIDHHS
The assay can be described thus: SPR (Carterra LSA), antibody amine-coupled, 1:1 model.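 Further: HC30M sensor chip at 25 °C in HBS-TE, analyte at rising concentrations in buffer containing 0.5 mg/mL BSA, 5 min association then 15 min dissociation.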

The target of assay [1] is T2, IL1RL1 over-expressed on Expi293 cells (UniProt Q01638 19-556, limits assumed).
T2 construct: whole, on cells; Target of the flow cytometry MFI ratio (over-expressing cells over parent cells); also called cytokine over-expressing Expi293 cells
T2 sequence (looked up): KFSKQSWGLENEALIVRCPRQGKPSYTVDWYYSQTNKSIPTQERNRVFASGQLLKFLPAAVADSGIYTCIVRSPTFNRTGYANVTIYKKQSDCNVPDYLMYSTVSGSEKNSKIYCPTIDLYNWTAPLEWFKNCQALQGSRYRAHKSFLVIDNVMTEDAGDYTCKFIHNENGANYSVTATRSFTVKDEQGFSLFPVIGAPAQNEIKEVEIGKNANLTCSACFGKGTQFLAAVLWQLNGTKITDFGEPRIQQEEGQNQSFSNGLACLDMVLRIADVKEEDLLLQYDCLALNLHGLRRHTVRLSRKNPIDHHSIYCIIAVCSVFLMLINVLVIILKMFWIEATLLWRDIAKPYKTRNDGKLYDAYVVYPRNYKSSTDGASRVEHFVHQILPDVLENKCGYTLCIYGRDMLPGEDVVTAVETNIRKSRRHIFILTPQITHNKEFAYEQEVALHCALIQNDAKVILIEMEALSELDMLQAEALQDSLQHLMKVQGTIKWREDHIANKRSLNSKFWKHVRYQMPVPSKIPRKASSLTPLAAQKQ
The assay can be described thus: flow cytometry, 100 nM antibody, over-expressing Expi293 / parent cells.
Experimental: (§1) All incubations and washes were in buffer containing PBS+1% BSA. MFI Ratio is defined by the mean fluorescence intensity (MFI) of the cytokine over-expressing Expi293 cell over the Expi293 parent cell. […] EC50 was calculated in GraphPad Prism.

Assay [2] has as its target T3, IL1RL2 over-expressed on Expi293 cells (UniProt Q9HB29 20-575, limits assumed).
T3 construct: whole, on cells; Target of the flow cytometry assay; MFI ratio is over-expressing cells over parent cells
T3 sequence (looked up): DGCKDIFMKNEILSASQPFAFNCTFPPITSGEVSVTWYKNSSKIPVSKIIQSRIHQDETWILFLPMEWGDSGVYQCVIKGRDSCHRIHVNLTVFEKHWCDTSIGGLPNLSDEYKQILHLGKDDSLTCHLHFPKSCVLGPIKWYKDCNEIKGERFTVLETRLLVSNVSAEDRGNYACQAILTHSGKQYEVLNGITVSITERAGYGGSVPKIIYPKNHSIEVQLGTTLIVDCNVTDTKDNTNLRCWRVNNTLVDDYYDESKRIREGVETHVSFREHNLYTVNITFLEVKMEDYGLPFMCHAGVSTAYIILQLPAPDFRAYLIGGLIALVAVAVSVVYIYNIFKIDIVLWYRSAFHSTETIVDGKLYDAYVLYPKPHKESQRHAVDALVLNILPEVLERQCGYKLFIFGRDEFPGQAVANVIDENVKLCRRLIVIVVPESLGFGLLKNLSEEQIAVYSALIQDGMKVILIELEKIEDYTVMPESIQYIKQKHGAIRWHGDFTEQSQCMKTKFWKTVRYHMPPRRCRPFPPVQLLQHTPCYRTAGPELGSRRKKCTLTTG
The assay can be described thus: flow cytometry, over-expressing Expi293 vs parent cells, 100 nM antibody.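 Further: ratio is mean fluorescence intensity on over-expressing Expi293 cells divided by that measured on parental Expi293 cells.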 A general note: In flow cytometry, cells or beads pass a laser one at a time.
Experimental: as §1

B1: IL1RL1-88 (Fc fusion, not shown: a dimerising Fc or GST)
VHH: EVQLVESGGGLVQPGGSLRLSCAASGRTSHGYGGYGMGWFRQAPGKEREEVAAISSSGSSTVYADSVKGRFTISADNSKNTAYLQMNSLKPEDTAVYYCAAIAYEEGVYRWDWGQGTLVTVSS
notes: VHH-Fc on IgG2 Fc
As usually defined, the Kd is the concentration at which binding is half-saturated. Higher therefore signals weaker binding. For orientation: koff means the first-order rate constant of dissociation. Higher therefore signals fast dissociation. For orientation: kon means a measure of how fast the partners come together. High values mean faster complex formation, low ones slower complex formation. In the assay with IL1RL1, B1 came in with a dissociation constant (Kd) of 0.529 nM, a koff of 0.000104 s⁻¹ and an on-rate constant (kon) of 197000 M⁻¹ s⁻¹. In assay [1], the “100 nM FACS (MFI Ratio)” value worked out at 339 MFI ratio.

B2: IL1RL2-10 (VHH)
VHH: EVQLVESGGGLVQPGGSLRLSCAASGFTFSNHIMGWFRQAPGKEREWVSGINRDGSTSYADSVKGRFTISADNSKNTAYLQMNSLKPEDTAVYYCAKARQITGWDFDYWGQGTLVTVSS
notes: VHH-Fc based on IgG2 Fc
In the case of B2, in assay [2], the “100 nM FACS (MFI Ratio)” value came out at 12.7.

B3: IL1RL1-73 (Fc fusion, not shown: a dimerising Fc or GST)
VHH: EVQLVESGGGLVQPGGSLRLSCAASGDISSIVAMGWFRQAPGKEREWVSSIGIAGTPTFYADSVKGRFTISADNSKNTAYLQMNSLKPEDTAVYYCAGRSIGVDDMPYVWGQGTLVTVSS
notes: VHH-Fc on IgG2 Fc
For B3, in the assay with IL1RL1, the Kd amounted to 2.06 nM, the koff worked out at 0.000362 s⁻¹ and the kon worked out at 176000 M⁻¹ s⁻¹. In addition, the “100 nM FACS (MFI Ratio)” value in assay [1] came out at 463 MFI ratio.

B4: IL1RL2-3 (VHH)
VHH: EVQLVESGGGLVQPGGSLRLSCAASGRTVSTMGWFRQAPGKEREWVSTITFNGDHTYYADSVKGRFTISADNSKNTAYLQMNSLKPEDTAVYYCAKAYSSSWPYFDYWGQGTLVTVSS
notes: VHH-Fc based on IgG2 Fc
As for B4, the “100 nM FACS (MFI Ratio)” value in assay [2] is 1.97.

B5: IL1RL2-21 (VHH)
VHH: EVQLVESGGGLVQPGGSLRLSCAASGRTFSRYAMGWFRQAPGKEREFVAAINWSGDRTYYADSVKGRFTISADNSKNTAYLQMNSLKPEDTAVYYCAVSQPLNYYTYYDARRYDWGQGTLVTVSS
notes: VHH-Fc based on IgG2 Fc
B5: the “100 nM FACS (MFI Ratio)” value in assay [2] came to 20.9.

B6: IL1RL2-36 (VHH)
VHH: EVQLVESGGGLVQPGGSLRLSCAASGRTYNSYSMGWFRQAPGKEREFVAAISWSGEHTYYADSVKGRFTISADNSKNTAYLQMNSLKPEDTAVYYCAVSQPLNYYTYYDARRYDWGQGTLVTVSS
notes: VHH-Fc based on IgG2 Fc
With B6, the “100 nM FACS (MFI Ratio)” value in assay [2] is 14.

B7: IL1RL2-43 (VHH)
VHH: EVQLVESGGGLVQPGGSLRLSCAASGGTFSRYAMGWFRQAPGKEREFVAAISWSGANTYYADSVKGRFTISADNSKNTAYLQMNSLKPEDTAVYYCAVSQPLNYYTYYDARRYDWGQGTLVTVSS
notes: VHH-Fc based on IgG2 Fc
For the molecule B7, the “100 nM FACS (MFI Ratio)” value in assay [2] is 1.62.

B8: IL1RL2-37 (VHH)
VHH: EVQLVESGGGLVQPGGSLRLSCAASGGAFSTVAMGWFRQAPGKEREFVAAISWSRGRTFYADSVKGRFTISADNSKNTAYLQMNSLKPEDTAVYYCAVSQPLNYYTYYDARRYDWGQGTLVTVSS
notes: VHH-Fc based on IgG2 Fc
As for B8, the “100 nM FACS (MFI Ratio)” value in assay [2] stood at 16.9.

B9: IL1RL2-41 (VHH)
VHH: EVQLVESGGGLVQPGGSLRLSCAASGGTFSRYAMGWFRQAPGKEREFVAAVNWSGARTYYADSVKGRFTISADNSKNTAYLQMNSLKPEDTAVYYCAVSQPLNYYTYYDARRYDWGQGTLVTVSS
notes: VHH-Fc based on IgG2 Fc
On to B9, for which the “100 nM FACS (MFI Ratio)” value in assay [2] is 5.33.

B10: IL1RL2-55 (VHH)
VHH: EVQLVESGGGLVQPGGSLRLSCAASGYTDSNLWMGWFRQAPGKEREFVASIDWSGRSTYYADSVKGRFTISADNSKNTAYLQMNSLKPEDTAVYYCAANGIESYGWGNRHFNWGQGTLVTVSS
notes: VHH-Fc based on IgG2 Fc
Take B10: the “100 nM FACS (MFI Ratio)” value in assay [2] came out at 49.7.

B11: IL1RL2-13 (VHH)
VHH: EVQLVESGGGLVQPGGSLRLSCAASGYTDSNLWMGWFRQAPGKEREFVGSIDWIPSNIYYADSVKGRFTISADNSKNTAYLQMNSLKPEDTAVYYCAANGIESYGWGNRHFNWGQGTLVTVSS
notes: VHH-Fc based on IgG2 Fc
Turning to B11, in assay [2], the “100 nM FACS (MFI Ratio)” value is 11.3.

B12: IL1RL2-19 (VHH)
VHH: EVQLVESGGGLVQPGGSLRLSCAASGYTDSNLWMGWFRQAPGKEREFVASVNWSGKDTYYADSVKGRFTISADNSKNTAYLQMNSLKPEDTAVYYCAANGIESYGWGNRHFNWGQGTLVTVSS
notes: VHH-Fc based on IgG2 Fc
For the molecule B12, the “100 nM FACS (MFI Ratio)” value in assay [2] was 13.8.

B13: IL1RL2-4 (VHH)
VHH: EVQLVESGGGLVQPGGSLRLSCAASGFILREYNMGWFRQAPGKEREFVAAISPSAFTEYADSVKGRFTISADNSKNTAYLQMNSLKPEDTAVYYCAAANEYWVYVNPNRYTWGQGTLVTVSS
notes: VHH-Fc based on IgG2 Fc
Regarding B13, the “100 nM FACS (MFI Ratio)” value in assay [2] amounted to 15.7.

B14: IL1RL2-54 (VHH)
VHH: EVQLVESGGGLVQPGGSLRLSCAASGRYFSDYNMGWFRQAPGKEREFVAAISPSAFTEYADSVKGRFTISADNSKNTAYLQMNSLKPEDTAVYYCAAANEYWVYVNPNRYTWGQGTLVTVSS
notes: VHH-Fc based on IgG2 Fc
Consider B14, for which, in assay [2], the “100 nM FACS (MFI Ratio)” value was 21.1.

B15: IL1RL1-78 (Fc fusion, not shown: a dimerising Fc or GST)
VHH: EVQLVESGGGLVQPGGSLRLSCAASGFTLDDYAMGWFRQAPGKEREEVAAISWIIGSTKYADSVKGRFTISADNSKNTAYLQMNSLKPEDTAVYYCAAIVYEEGVYRWDWGQGTLVTVSS
notes: VHH-Fc on IgG2 Fc
In the case of B15, in the assay with IL1RL1, the Kd was 1.36 nM, the koff was 0.000278 s⁻¹ and the kon came to 204000 M⁻¹ s⁻¹. Moreover, in assay [1], the “100 nM FACS (MFI Ratio)” value is 475 MFI ratio.

B16: IL1RL1-89 (Fc fusion, not shown: a dimerising Fc or GST)
VHH: EVQLVESGGGLVQPGGSLRLSCAASGSIYSLVAMGWFRQAPGKEREAVAGIVSGGSTSYADSVKGRFTISADNSKNTAYLQMNSLKPEDTAVYYCAAVGGATTVTASEWDWGQGTLVTVSS
notes: VHH-Fc on IgG2 Fc
In the assay with IL1RL1, B16 yielded a Kd of 0.781 nM, a koff of 0.000388 s⁻¹ and a kon of 496000 M⁻¹ s⁻¹. Further, the “100 nM FACS (MFI Ratio)” value in assay [1] amounted to 340 MFI ratio.

B17: IL1RL2-14 (VHH)
VHH: EVQLVESGGGLVQPGGSLRLSCAASGFTFSNYWMGWFRQAPGKEREFVATIPWSGAYTEYADSVKGRFTISADNSKNTAYLQMNSLKPEDTAVYYCAAANEYWVYVNPNRYTWGQGTLVTVSS
notes: VHH-Fc based on IgG2 Fc
Regarding B17, the “100 nM FACS (MFI Ratio)” value in assay [2] stood at 42.1.

B18: IL1RL2-39 (VHH)
VHH: EVQLVESGGGLVQPGGSLRLSCAASGRAFSSTVMGWFRQAPGKEREFVAGIGWTDAYTEYADSVKGRFTISADNSKNTAYLQMNSLKPEDTAVYYCAAANEYWVYVNPNRYTWGQGTLVTVSS
notes: VHH-Fc based on IgG2 Fc
On to B18, for which the “100 nM FACS (MFI Ratio)” value in assay [2] came out at 15.3.

B19: IL1RL2-8 (VHH)
VHH: EVQLVESGGGLVQPGGSLRLSCAASGFTYSSNYMGWFRQAPGKEREFVAGISWTDAYTEYADSVKGRFTISADNSKNTAYLQMNSLKPEDTAVYYCAAANEYWVYVNPNRYTWGQGTLVTVSS
notes: VHH-Fc based on IgG2 Fc
With B19, the “100 nM FACS (MFI Ratio)” value in assay [2] was determined as 12.8.

B20: IL1RL2-25 (VHH)
VHH: EVQLVESGGGLVQPGGSLRLSCAASGLPFNNVYMGWFRQAPGKEREFVAAVTWSGAYTEYADSVKGRFTISADNSKNTAYLQMNSLKPEDTAVYYCAAANEYWVYVNPNRYTWGQGTLVTVSS
notes: VHH-Fc based on IgG2 Fc
On to B20, for which, in assay [2], the “100 nM FACS (MFI Ratio)” value was 16.5.

B21: IL1RL2-49 (VHH)
VHH: EVQLVESGGGLVQPGGSLRLSCAASGFTFSTYWMGWFRQAPGKEREFVATIPWIGAHTEYADSVKGRFTISADNSKNTAYLQMNSLKPEDTAVYYCAEANEYWGYVNPNRYTWGPGTLVTVSH
notes: VHH-Fc based on IgG2 Fc
For B21, the “100 nM FACS (MFI Ratio)” value in assay [2] turned out to be 190.

B22: IL1RL1-91 (Fc fusion, not shown: a dimerising Fc or GST)
VHH: EVQLVESGGGLVQPGGSLRLSCAASGGTFGSYAMGWFRQAPGKEREGVAAIYTGGITTYADSVKGRFTISADNSKNTAYLQMNSLKPEDTAVYYCAAFDGYSGSDWGQGTLVTVSS
In the assay with IL1RL1, B22 gave a Kd of 1.85 nM, a koff of 0.000261 s⁻¹ and a kon of 141000 M⁻¹ s⁻¹. In assay [1], the “100 nM FACS (MFI Ratio)” value was determined as 475 MFI ratio.
